Assay results published in patent US20180155451A1 (published 2018).

T1: FcγRIIb (human, UniProt P31994 43-217)
T1 construct: extracellular domain; also called FcgRIIb; 2b
T1 sequence (looked up): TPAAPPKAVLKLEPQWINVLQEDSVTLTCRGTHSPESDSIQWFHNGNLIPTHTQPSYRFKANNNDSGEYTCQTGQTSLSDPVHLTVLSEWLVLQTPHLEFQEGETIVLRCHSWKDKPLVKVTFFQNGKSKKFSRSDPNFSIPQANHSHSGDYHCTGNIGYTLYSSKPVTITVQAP

T2: FcγRIIa H (human, UniProt P12318 34-217)
T2 construct: extracellular domain; also called FcgRIIa H type; 2aH
T2 sequence (looked up): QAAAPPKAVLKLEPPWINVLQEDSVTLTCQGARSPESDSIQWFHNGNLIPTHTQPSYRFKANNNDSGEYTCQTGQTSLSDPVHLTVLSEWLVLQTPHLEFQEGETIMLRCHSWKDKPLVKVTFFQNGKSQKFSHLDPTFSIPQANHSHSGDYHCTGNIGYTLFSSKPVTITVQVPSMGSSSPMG

T3: FcγRIIb extracellular domain with C-terminal His tag (human, UniProt P31994 43-217)
T3 construct: extracellular domain; also called FcgRIIb; 2b; not shown: His tag at the C terminus
T3 sequence (looked up): T1 sequence (looked up)

B1: GpH7-A5/GpH7-B3 variant D265_19Q/GpL16-k0 (antibody, human IgG1, kappa)
heavy 1: not shown
heavy 2: not shown
light: DIVMTQSPLSLPVTPGEPASISCQASESLVHSNRNTYLHWYLQKPGQSPQLLIYKVSNRFSGVPDRFSGSGSGTDFTLKISRVEAEDVGVYYCSQNTHVPPTFGQGTKVEIERTVAAPSVFIFPPSDEQLKSGTASVVCLLNNFYPREAKVQWKVDNALQSGNSQESVTEQDSKDSTYSLSSTLTLSKADYEKHKVYACEVTHQGLSSPVTKSFNRGEC
notes: Heterodimerized anti-glypican-3 IgG1; substitution in only one H chain (the GpH7-B3 chain); also called He Ab
B2: GpH7-A5/GpH7-B3 variant D265_20W/GpL16-k0 (antibody, human IgG1, kappa)
heavy 1: not shown
heavy 2: not shown
light: B1 light
notes: as for B1
B3: GpH7-A5/GpH7-B3 variant E269_01G/GpL16-k0 (antibody, human IgG1, kappa)
heavy 1: not shown
heavy 2: not shown
light: B1 light
notes: as for B1
B4: GpH7-A5/GpH7-B3 variant H268_04F/GpL16-k0 (antibody, human IgG1, kappa)
heavy 1: not shown
heavy 2: not shown
light: B1 light
notes: as for B1
B5: GpH7-A5/GpH7-B3 variant H268_06M/GpL16-k0 (antibody, human IgG1, kappa)
heavy 1: not shown
heavy 2: not shown
light: B1 light
notes: as for B1
B6: GpH7-A5/GpH7-B3 variant H268_08L/GpL16-k0 (antibody, human IgG1, kappa)
heavy 1: not shown
heavy 2: not shown
light: B1 light
notes: as for B1
B7: GpH7-A5/GpH7-B3 variant V266_05P/GpL16-k0 (antibody, human IgG1, kappa)
heavy 1: not shown
heavy 2: not shown
light: B1 light
notes: as for B1
B8: GpH7-A5/GpH7-B3 variant D270_01G/GpL16-k0 (antibody, human IgG1, kappa)
heavy 1: not shown
heavy 2: not shown
light: B1 light
notes: He Ab: the mutation stands only in the GpH7-B3-derived H chain; also called He Ab D270G
B9: GpH7-A5/GpH7-B3 variant D270_03V/GpL16-k0 (antibody, human IgG1, kappa)
heavy 1: not shown
heavy 2: not shown
light: B1 light
notes: He Ab: the mutation stands only in the GpH7-B3-derived H chain; also called He Ab D270V
B10: GpH7-A5/GpH7-B3 variant D270_06M/GpL16-k0 (antibody, human IgG1, kappa)
heavy 1: not shown
heavy 2: not shown
light: B1 light
notes: He Ab: the mutation stands only in the GpH7-B3-derived H chain; also called He Ab D270M
B11: GpH7-A5/GpH7-B3 variant D270_07I/GpL16-k0 (antibody, human IgG1, kappa)
heavy 1: not shown
heavy 2: not shown
light: B1 light
notes: He Ab: the mutation stands only in the GpH7-B3-derived H chain; also called He Ab D270I
B12: GpH7-A5/GpH7-B3 variant D270_08L/GpL16-k0 (antibody, human IgG1, kappa)
heavy 1: not shown
heavy 2: not shown
light: B1 light
notes: He Ab: the mutation stands only in the GpH7-B3-derived H chain; also called He Ab D270L
B13: GpH7-A5/GpH7-B3 variant D270_10E/GpL16-k0 (antibody, human IgG1, kappa)
heavy 1: not shown
heavy 2: not shown
light: B1 light
notes: He Ab: the mutation stands only in the GpH7-B3-derived H chain; also called He Ab D270E
B14: GpH7-A5/GpH7-B3 variant D270_11K/GpL16-k0 (antibody, human IgG1, kappa)
heavy 1: not shown
heavy 2: not shown
light: B1 light
notes: He Ab: the mutation stands only in the GpH7-B3-derived H chain; also called He Ab D270K
B15: GpH7-A5/GpH7-B3 variant D270_12R/GpL16-k0 (antibody, human IgG1, kappa)
heavy 1: not shown
heavy 2: not shown
light: B1 light
notes: He Ab: the mutation stands only in the GpH7-B3-derived H chain; also called He Ab D270R

These binders were tested against T1, FcγRIIb (assay: SPR (Biacore), antibody captured on antigen-peptide chip, FcγR as analyte; binding relative to GpH7-A5/GpH7-B3/GpL16-k0 = 100).

Binder | He/Con_2b
B1 | 33.4 % of HeCon Ab
B2 | 1.1 % of HeCon Ab
B3 | 51.5 % of HeCon Ab
B4 | 89.6 % of HeCon Ab
B5 | 65.7 % of HeCon Ab
B6 | 67.8 % of HeCon Ab
B7 | 0.4 % of HeCon Ab

These binders were tested against T2, FcγRIIa H in the same assay as above.

Binder | He/Con_2aH
B1 | 47.7 % of HeCon Ab
B2 | 3.2 % of HeCon Ab
B3 | 71.5 % of HeCon Ab
B4 | 111 % of HeCon Ab
B5 | 84.8 % of HeCon Ab
B6 | 85 % of HeCon Ab
B7 | 0.7 % of HeCon Ab

The binders below were run against T3, FcγRIIb extracellular domain with … (assay: SPR (Biacore), antibody captured via antigen peptide, FcγR as analyte; binding relative to GpH7-A5/GpH7-B3/GpL16-k0 = 100).

Binder | He/Con_2b
B8 | 30.5 relative (control = 100)
B9 | 39.5 relative (control = 100)
B10 | 48.2 relative (control = 100)
B11 | 41.5 relative (control = 100)
B12 | 53.6 relative (control = 100)
B13 | 76.5 relative (control = 100)
B14 | 20.3 relative (control = 100)
B15 | 18.3 relative (control = 100)

What follows are binders tested against T4, FcγRIIIa extracellular domain with C-terminal His tag (human, UniProt P08637 17-208) in the same assay as above.
T4 construct: extracellular domain; also called FcgRIIIa; 3a; not shown: His tag at the C terminus
T4 sequence (P08637 17-208): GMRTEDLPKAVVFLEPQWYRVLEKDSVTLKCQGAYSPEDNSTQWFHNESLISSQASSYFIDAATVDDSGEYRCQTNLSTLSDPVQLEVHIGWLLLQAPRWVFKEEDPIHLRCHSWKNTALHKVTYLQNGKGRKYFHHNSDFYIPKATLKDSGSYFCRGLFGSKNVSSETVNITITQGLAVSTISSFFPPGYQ

Binder | He/Con_3a
B8 | 38.5 relative (control = 100)
B9 | 60.3 relative (control = 100)
B10 | 66.3 relative (control = 100)
B11 | 69.6 relative (control = 100)
B12 | 71.8 relative (control = 100)
B13 | 123 relative (control = 100)
B14 | 41 relative (control = 100)
B15 | 28.8 relative (control = 100)

Each binder was assayed against T4, FcγRIIIa extracellular domain with … (assay: ratio of He/Con_3a to He/Con_2b (FcγRIIIa over FcγRIIb), SPR relative binding).
Description: The heterodimerized antibodies He Abs in which one of the H chains was introduced with an alteration were assayed for their binding activities to each activating FcγR and inhibitory FcγR according to the method described in Example 4. […] The activating FcγRs in FIGS. 26, 27, 28, and 29 are FcγRIa, FcγRIIa (R), FcγRIIa (H), and FcγRIIIa, respectively.
Analysis of interaction between objective antibody and the FcγR was carried out using Biacore T100 (GE Healthcare). HBS-EP+ (GE Healthcare) was used as the running buffer, and the measurement temperature was set to 25° C. Chips produced by immobilizing the antigen peptide by the amine coupling method to a Series S Sencor Chip CM5 (GE Healthcare), or alternatively, chips produced by allowing preliminarily biotinylated antigen peptides to interact with and immobilize onto a Series S Sensor Chip SA (certified) (GE Healthcare) were used. Antibodies of interest were captured onto an antigen peptide-immobilized chip, and allowed to interact to each FcγR diluted with running buffer. To regenerate and repeatedly use the chip, the antibodies captured on the chip were washed off by reacting 10 mM glycine-HCl, pH 1.5.

Binder | IIIa/IIb (He_3a/2b)
B8 | 1.26
B9 | 1.52
B10 | 1.38
B11 | 1.68
B12 | 1.34
B13 | 1.61
B14 | 2.02
B15 | 1.58

What follows are binders tested against T2, FcγRIIa H (assay: ratio of He/Con_2aH to He/Con_2b (relative SPR binding to FcγRIIa H over that of the same antibody to FcγRIIb)).

Binder | He_2aH/2b (IIaH/IIb)
B1 | 1.43
B2 | 2.86
B3 | 1.39
B4 | 1.24
B5 | 1.29
B6 | 1.25
B7 | 1.91
